{"source": "paper PMC5576569", "about": "(Journal of molecular biology, 2017)", "biological_target": "the molecule itself", "test": "AUC", "data": [{"protein": "SSB-ΔL, linkerless variant of E. coli SSB (SSBΔ115–168) (natural protein, UniProt P0AGE0 2-178, looked up) ASRGVNKVILVGNLGQDPEVRYMPNGGAVANITLATSESWRDKATGEMKEQTEWHRVVLFGKLAEVASEYLRKGSQVYIEGQLRTRKWTDQSGQDRYTTEVVVNVGGTMQMLGGMDFDDDIPF", "values": [{"measurement": "stoichiometry N", "value": 4}]}]}
